B1: Pyrococcus furiosus NurA (Pf NurA), wild type (enzyme, UniProt Q8U1N8 1-451, looked up)
chain: MRLLSKQSIERITKILLDELENVRENEQIRNIINSWKPLPSPEKSSIYAVDGSRSVSRLSGTVIYFLSALAVGSGKQLRLSYANAIKSNYGTSDQIVRMQMETLENMLGYLAYRKLEGEKRAILMDGTLTGSLVRPPVYPEDIRSLNVMRALIGESDFENLLNEFLEKLRDHYRKVEEHLEKNGNYDSPILTDNVVEKLRKKYIDTKVIAYGSGKVKVKIPRKALGYSPRVIPIEVLESSRGKSVDELLQELDEEKVELYLGKDDIYDALHMTLSYIEYLYSIDKLLEVKNLAYIAKSFYTKTLARTLGVEIVDTALLDAVIRTLIGHEKEGYLEIEHAVVPPKWSFPDFLLSKFRNIEKLIDKGIHLAYVRFEQGDVIYMLQSTTNIEKILPLILHHKAGGYLRPLQLAHHGVKISYKEARHTLEALINALRNRDPALKIFVKYGRSPLE
B2: Pf NurA R11A/I12E/S60Y dimeric interface mutant (enzyme, Pyrococcus furiosus)
chain: MRLLSKQSIEAETKILLDELENVRENEQIRNIINSWKPLPSPEKSSIYAVDGSRSVSRLYGTVIYFLSALAVGSGKQLRLSYANAIKSNYGTSDQIVRMQMETLENMLGYLAYRKLEGEKRAILMDGTLTGSLVRPPVYPEDIRSLNVMRALIGESDFENLLNEFLEKLRDHYRKVEEHLEKNGNYDSPILTDNVVEKLRKKYIDTKVIAYGSGKVKVKIPRKALGYSPRVIPIEVLESSRGKSVDELLQELDEEKVELYLGKDDIYDALHMTLSYIEYLYSIDKLLEVKNLAYIAKSFYTKTLARTLGVEIVDTALLDAVIRTLIGHEKEGYLEIEHAVVPPKWSFPDFLLSKFRNIEKLIDKGIHLAYVRFEQGDVIYMLQSTTNIEKILPLILHHKAGGYLRPLQLAHHGVKISYKEARHTLEALINALRNRDPALKIFVKYGRSPLE
B3: Pf NurA ΔN26 dimeric interface mutant (first 26 residues deleted) (domain or fragment, Pyrococcus furiosus, UniProt Q8U1N8 27-451, looked up)
chain: EQIRNIINSWKPLPSPEKSSIYAVDGSRSVSRLSGTVIYFLSALAVGSGKQLRLSYANAIKSNYGTSDQIVRMQMETLENMLGYLAYRKLEGEKRAILMDGTLTGSLVRPPVYPEDIRSLNVMRALIGESDFENLLNEFLEKLRDHYRKVEEHLEKNGNYDSPILTDNVVEKLRKKYIDTKVIAYGSGKVKVKIPRKALGYSPRVIPIEVLESSRGKSVDELLQELDEEKVELYLGKDDIYDALHMTLSYIEYLYSIDKLLEVKNLAYIAKSFYTKTLARTLGVEIVDTALLDAVIRTLIGHEKEGYLEIEHAVVPPKWSFPDFLLSKFRNIEKLIDKGIHLAYVRFEQGDVIYMLQSTTNIEKILPLILHHKAGGYLRPLQLAHHGVKISYKEARHTLEALINALRNRDPALKIFVKYGRSPLE

Tests used:
AUC + SEC = target: the molecule itself; assay: AUC + SEC
SEC = target: the molecule itself; assay: SEC

Row | Protein | stoichiometry N (AUC + SEC) | stoichiometry N (SEC)
1 | B1 | 2 | –
2 | B2 | – | ~2
3 | B3 | – | 4
